T1: PABPN1 point mutant V126S (UniProt Q86U42 1-306, limits assumed)
T1 sequence (looked up): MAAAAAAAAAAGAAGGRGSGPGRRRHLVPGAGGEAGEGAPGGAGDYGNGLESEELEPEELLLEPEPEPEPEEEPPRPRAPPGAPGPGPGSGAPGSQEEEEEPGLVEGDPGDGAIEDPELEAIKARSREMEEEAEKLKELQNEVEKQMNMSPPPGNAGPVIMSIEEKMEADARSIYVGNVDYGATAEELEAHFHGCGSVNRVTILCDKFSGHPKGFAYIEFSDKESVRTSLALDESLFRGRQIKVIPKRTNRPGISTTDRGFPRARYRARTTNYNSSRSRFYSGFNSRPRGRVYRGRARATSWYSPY

T2: PABPN1 point mutant M129A (UniProt Q86U42 1-306, limits assumed)
T2 sequence (looked up): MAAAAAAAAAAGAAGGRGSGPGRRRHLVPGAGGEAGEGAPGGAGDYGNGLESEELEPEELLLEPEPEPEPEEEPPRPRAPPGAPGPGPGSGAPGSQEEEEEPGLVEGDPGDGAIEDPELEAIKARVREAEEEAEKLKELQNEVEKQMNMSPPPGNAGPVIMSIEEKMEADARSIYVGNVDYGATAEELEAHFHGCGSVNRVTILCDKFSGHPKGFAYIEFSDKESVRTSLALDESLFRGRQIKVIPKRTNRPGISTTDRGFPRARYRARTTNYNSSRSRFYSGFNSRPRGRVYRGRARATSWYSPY

T3: native PABPN1 purified from bovine calf thymus (bovine, UniProt Q28165 2-306)
T3 sequence (looked up): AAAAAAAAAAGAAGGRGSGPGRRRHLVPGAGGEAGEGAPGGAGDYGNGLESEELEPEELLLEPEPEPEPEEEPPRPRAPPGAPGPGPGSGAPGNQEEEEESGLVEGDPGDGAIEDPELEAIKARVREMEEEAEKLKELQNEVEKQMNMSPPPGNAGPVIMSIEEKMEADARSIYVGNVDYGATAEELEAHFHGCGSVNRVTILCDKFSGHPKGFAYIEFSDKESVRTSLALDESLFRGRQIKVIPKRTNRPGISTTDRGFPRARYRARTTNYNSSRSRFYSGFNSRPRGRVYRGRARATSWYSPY

T4: recombinant full-length human PABPN1 (nuclear poly(A)-binding protein 1), T7-tagged and His-tagged, produced … (human, UniProt Q86U42 1-306)
T4 construct: also called recombinant PABPN1; T7-tagged PABPN1; not shown: T7 Tag and His Tag from vector pET28a
T4 sequence (looked up): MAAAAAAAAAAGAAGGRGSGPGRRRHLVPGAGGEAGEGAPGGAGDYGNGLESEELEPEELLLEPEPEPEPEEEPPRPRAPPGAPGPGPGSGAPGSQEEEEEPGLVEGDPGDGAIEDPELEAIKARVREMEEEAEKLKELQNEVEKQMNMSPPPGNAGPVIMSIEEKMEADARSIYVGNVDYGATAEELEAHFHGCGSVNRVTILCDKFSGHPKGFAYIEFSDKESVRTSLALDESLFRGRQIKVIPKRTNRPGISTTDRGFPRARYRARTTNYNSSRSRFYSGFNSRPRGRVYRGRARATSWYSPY


What was measured:
[1] = target: T1, PABPN1 point mutant V126S; experiment: Western blot of purified mutant proteins
Excerpt: (§1) Proteins were separated by SDS-PAGE followed by Coomassie Brilliant Blue staining or transfer to PVDF Western blotting membranes (Roche Diagnostics, Almere, The Netherlands) using the Mini-PROTEAN 8 system for gel electrophoresis and the Mini Trans-Blot Cell for blotting of the proteins (Bio-Rad Laboratories, Hercules, Calif., USA). […] For phage detection a 10,000-fold dilution of a HRP-conjugated monoclonal antibody which binds to the phage coat protein was used (Amersham Biosciences, Uppsala, Sweden).

[2] = target: T2, PABPN1 point mutant M129A; experiment: Western blot of purified mutant proteins
Excerpt: as §1

[3] = target: T3, native PABPN1 purified from bovine calf …; experiment: affinity measurement (Biacore)
[4] = target: T4, recombinant full-length human PABPN1 …; experiment: BIAcore affinity measurement (SPR, CM5 chip)
Description: Affinities were calculated using Biacore evaluation software.

[5] = target: T4, recombinant full-length human PABPN1 …; experiment: BIAcore affinity measurement (SPR)
[6] = target: T4, recombinant full-length human PABPN1 …; experiment: BIAcore affinity measurement (SPR); remark: listed apart in the source
[7] = target: T3, native PABPN1 purified from bovine calf …; experiment: sandwich ELISA: 3F5 coated, native PABPN1 captured
[8] = target: T5, beta amyloid Aβ 1-42 (UniProt P05067 672-713); experiment: ELISA
T5 construct: domain: Aβ 1-42; The numbers 1-42 count on the Aβ peptide, not on the precursor; In immunohistochemistry the target is amyloid deposited in human brain sections; also called amyloid b-42; Amyloid-b-42
T5 sequence (P05067 672-713 limits assumed): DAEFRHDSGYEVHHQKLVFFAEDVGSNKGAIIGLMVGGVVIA

Binder | Kd [5] | Kd [6] | further results
VHH 3F5 (VHH, also called anti-PABPN1 VHH (3F5)) VHH: EVQLVESGGGLVQAGGSLRLSCAASGRTFSGYGMGWFRQAPGKEREFVAAISWRGGNTYYADSVKGRFTISRDNAKNTVWLQMNSLKPEDTAVYYCSGFVRTRDDPSRIRNYWGQGTQVTVST | – | – | binding result [1]: no binding; binding result [2]: no binding; Kd [3]: 5 nM; Kd [4]: 5 nM
VHH 3A9 (VHH) VHH: QVQLVESGGDLVQAGGSLRLSCAASGHTFDSYGMGWFRQRPGKGREFVAAITMIGGSTHYADSAKGRFTISRDNTKNTISLQMNSLKPEDTAVYYCHAFSRSRFEGYWGQGIQVTVSS | 8 nM | – | –
VHH 3E9 (VHH) VHH: QVQLQESGGGLVQPGGSLRLSCVASGFTFSDNAMSWVRRAPGKGLEWVSAINRAGDSARYADSVKGRFTISRDNAKNTLYLQMNSLKPEDTAVYYCTNGGNYRGQGTQVTVSA | 14 nM | – | –
VHH 08 (VHH, Alignment gaps removed) VHH: EVQLVESGGGLVQPGGSLRLSCVASGRTSRISRMAWFRQVPGNERELVATMSSSGITSYAGSVKGRFTISRDNAKNTVDLQMNSLKPEDTAVYYCKYSSRWNIYWGQGTQVTVSS | 57 nM | 57 nM | –
VHH 18 (VHH, Alignment gaps removed) VHH: AVQLVESGGGLVQAGGSLRLSCAASGSIVSLATMGWYRQAPGNQRELVATMSSSGITSYAGSVKGRFTYSRDNAKNTVDLQMNSLKPEDTAVYYCKYSSRWNIYWGQGTLVTVSS | 7 nM | 7 nM | –
VHH 29 (VHH, also called antibody fragment 29) VHH: QVQLVESGGGLVQAGDSLRLSCAASGRTFSSYVMGWFRQAPGKEREFVAAVTGGGISTYYADSVKGRFTISRDNAKNTVYLQMNSLTPEDTAVYYCYARRLNSWGQGTQVTISS | 11 nM | 11 nM | binding result [7]: binds
VHH 11D (VHH, Selected against amyloid b-42) VHH: AVQLVESGGGLVQAGGSLRLSCAASQRTFSSYVMGWFRQAPGKEREFVAAIGWSGGSTAYADSVKGRFTISRDNARNTVYLQMNSLKPEDTAVYYCASAPTRWVPRDSRFYDRWGQGTRVTVSS | – | – | binding result [8]: binds
VHH 3A (VHH, Selected against Aβ 1-42; 15N-labeled in the NMR titration; also called anti-Aβ1-42 VHH 3A) VHH: AVQLVESGGGLVRDGGSLRLSCAASGRTFSSYVMGWFRQAPGKEREFVAAIGWSGGSTAYADSVKGRFTISRDNARNTVYLQMNSLKPEDTAVYYCASAPTRWVPRDSRFYDRWGQGTRVTVSS | – | – | binding result [8]: binds
